Assay results from the RNAGym collection of RNA variant scans (doi:10.1073/pnas.2313332121).
Variants at the floor of the assay were thinned out.

B1: TPR 5TU (parent)
chain: GGAUCUUCUCGAUCUAACAAAAAAGACAAAUCUGCCACAAAGCUUGAGAGCAUCUUCGGAUGCAGAGGCGGCAGCCUUCGGUGGCGCGAUAGCGCCAACGUUCUCAACUAUGACACGCAAAACGCGUGCUCCGUUGAAUGGAGUUUAUCAUG

Variants of: B1
Test: polymerase ribozyme fitness, log enrichment relative to wild type (log ratio); higher = more active; in vitro selection for triplet polymerase activity
Procedure, shortened: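 Frozen incubation at −7 °C formed the core of a single, triplicate in vitro selection round applied to PCR-built, transcribed mutant libraries of each subunit of a heterodimeric triplet polymerase ribozyme. Extended constructs were gel-excised, captured with streptavidin beads and amplified by RT-PCR, and input and output libraries were Illumina-sequenced with a filter of ≥10 input reads and ≥1 read per output. Fitness is the logarithm of genotype enrichment relative to wild-type enrichment, with inverse-variance-weighted replicate averaging, and the logarithm is base 2.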

Row | Variant | polymerase ribozyme fitness (log ratio)
1 | GGAUCUUCUCGAUCUAACAAAAAAGACAAAUCUGCCACAAAGCUUGAGAGCAUCUCCGGAUGCAGAGGCGGCAUCUUUCGGUGUCGCGAUAGCGCCAACGUUCUCAACUAUGACACGCAAAACGGGUGCUCCGUUGACUGGAGUUUAUCAUG | ≤ -4.2
2 | GGAUCUUCUCGAUCUAACAAAAAAGACAAAUCUGCCACAAAGCUUGAGAGCAUCUGCGGAUGCAGAGGCGGCAGCCUUCGGUGGUGCGAUAGCGCCAACGUUCUCAACUAUGACACGCAAAACGCGUGCUCCGUUGAAUGGAGUUUAUCAUG | -1.42
3 | GGAUCUUCUCGAUCUAACAAAAAAGACAAAUCUGCCACAAAGCUUGAGAGCAUCUGCGGAUGCAGAGGCGGCAGCCUUCGGUGGAGCGAUAGCGCCAACGUUCUCAACUAUGACACGCAAAACGCGUGCUCCGUUGAAUGGAGUUUAUCAUG | -2.05
4 | GGAUCUUCUCGAUCUAACAAAAAAGACAAAUCUGCCACAAAGCUUGAGAGCAUCUGCGGAUGCAGAGGCGGCGGCCUUCGGUGGCGCGAUAGCGCCAACGCUCUCAACUAUGACACGCGAAACGCGUGCUCCGUUGAAUGGAGUUUACCAUG | -4.08
5 | GGAUCUUCUCGAUCUAACAAAAAAGACAAAUCUGCCACAAAGCUUGAGAGCAUCUGCGGAUGCAGAGGCGGCAGCCUUCGAUGGCGCGAUAGCGCCAACGUUCCCAACUAUGACACGCAAAACGCGUGCUCCGUUGAAUGGAGUCUAUCAUG | -1.47
6 | GGAUCUUCUCGAUCUAACAAAAAAGACAAAUCUGCCACAAAGCUUGAGAGCAUCUCCGGAUGCAGAGGCGGCAGCCUUCGGUGGCGCGAUAGUGCCAACGGUUUCAACUAUGACACGCAAAACGCGUGCUCCGUUCAAUGGAGUUUAUCAUG | -4.09
7 | GGAUCUUCUCGAUCUAACAAAAAAGACAAAUCUGCCACAAAGCUUGAGAGCAUCUGCGAAUGCAGAGGCGGCAGCCUUCGGUGGCGCGAUAGCGCCAACGUUCUCAACUAUGACACGCAAAACGCGUGCUCCGUUGAAUGGAGUUUAUCAUG | -1.14
8 | GGAUCUUCUCGAUCUAACAAAAAAGACAAAUCUGCCACAAAGCUUGAGAGCAUCUGCGGAUGCAGAGGCGGCAGCCUUCGGUGGCGCGAUAGCGCCCACGUUCUCAACUAUGACACGCAAAACGCGUGCUCCGUUGAAUGGAGUUUAUCAUG | -1.65
9 | GGAUCUUCUCGAUCUAACAAAAAAGACAAAUCUGCCACAAAGCUUGAGAGCAUCUGCGGAUGCAGAGGCGCCAGCCUUCGGUGGCGCGAUAGCGCCAACGUUCUCAACUAUGACACGCAAAAGGCGUGCUCCGUUGAAUGGAGUUUAUCAUG | -3.58
10 | GGAUCUUCUCGAUCUAACAAAAAAGACAAAUCUGCCACAAAGCUUGAGAGCAUCUGCGGGUGCAGAGGCGGCAGCCUUCGGUGACGCGAUAGCGCCAACGUUCUCAACUAUGACACGCAAAACGCGUGCUCCGUUGAAUGGAGUUUAUCAUG | -0.664
11 | GGAUCUUCUCGAUCUAACAAAAAAGACAAAUCUGCCACAAAGCUUGAGAGCAUCUGCGGAUGCAGAGGUGGCUGCCUUCGGUGGCGCGAUAGCGCCAACGUUCUCAACUAUGACACGCAAAACGCGUGCUCCGCUGAAUGUAGUUAAUCAUG | -2.72
12 | GGAUCUUCUCGAUCUAACAAAAAAGACAAAUCUGCCACAAAGCUUGAGAGCAUCUGCCGAAGCAGAGGCGGCAGCCUUCGGUGGCGCGAUAGCGCCAACGUUCUCAACUAUGACACGCAAAACGCGUGCUCCGUUGAAUGGAGUUUAUCAUG | -2.98
13 | GGAUCUUCUCGAUCUAACAAAAAAGACAAAUCUGCCACAAAGCUUGAGAGCAUCUGCGGAUGCAGAGGCGGCAGCCUUCGGUGGGGCGAUAGCGCCAACGUUCUCAACUAUGACUCGCAAAACGCGUGCUCCGUUGAAUGGAGUUUAUCAUG | -3.43
14 | GGAUCUUCUCGAUCUAACAAAAAAGACAAAUCUGCCACAAAGCUUGAGAGCAUCUGCGGAUGCAGAGGCGGCAGGCUUCGGUGGCGCGAUAGUGCCAACGUUCUCAACUAUGACACGCAAAACGCGUGCUCCGUUGAAUGGAGUUUAUCAUG | -4.19
15 | GGAUCUUCUCGAUCUAACAAAAAAGACAAAUCUGCCACAAAGCUUGAGAGCAUCUCCGGAUGCAGAGGCGGCAGCCUUCGGUGGCGCGAUAGCCCCAACGUUCUCAACUAUGACACGCAAAACGCGUGCUCCGUUGAAUGGAGUUUAUCAUG | 0.00198
16 | GGAUCUUCUCGAUCUAACAAAAAAGACAAAUCUGCCACAAAGCUUGAGAGCAUCUCCGGAUGCAGAGGCGGCAGCCUUCGGUAGCGGGAUAGCGCCAACGUUCUCAACUAUGACACGCAAAAUGCGUGCUCCGUUGAAUGAAGUUUAUCAUG | ≤ -4.2
17 | GGAUCUUCUCGAUCUAACAAAAAAGACAAAUCUGCCACAAAGCUUGAGAGCAUCUGCAGAUGGAGAGGCGGCAGCCUUCGGUGGCGCGAUAGCGCCAACGGUCUCAACUAUGACACGCAUAACGCGUGCUCCGUUGAAUGGAGUUUAUCAUG | -2.56
18 | GGAUCUUCUCGAUCUAACAAAAAAGACAAAUCUGCCACAAAGCUUGAGAGCAUCUCCGGAUGCAGAGGCGGCAGCCUUCGGUGGCGCGAUAGCGCCAACGUGCUCAACUAUGACACGCAAAACGCGUGCUCCGUUGAAUGGGGUUUAUCAUG | -3.95
19 | GGAUCUUCUCGAUCUAACAAAAAAGACAAAUCUGCCACAAAGCUUGAGAGCAUCUGCGGCUGCAGAGGCGGCAGCCUUCGAUGGCGCGAUAGCUCCAACGUUCUCGACUAUGACACGCAAAACGCGUGCUCCGUUGAAUGGAGUUUAUCAUG | -3.84
